Test results taken from paper PMC7450096, “Structural mechanism for replication origin binding and remodeling by a metazoan origin recognition complex and its co-loader Cdc6” (Nature Communications, 2020).

Experiments:
[1] = target: T1, Drosophila Orc3, subunit of DmORC^Orc1ΔN (Drosophila, UniProt Q7K2L1 1-721); test: cryo-EM structure; DmORC^Orc1ΔN (2.5 μM), duplex DNA (3 μM; 60 bp AT-rich, 84 bp AT-rich, 60 bp poly(dA·dT) or 60 bp GC-rich) and DmCdc6ΔN (6.8 μM) assembled at 25 °C in 25 mM HEPES-KOH pH 7.6, 250 mM potassium acetate, 10 mM magnesium acetate, 1 mM DTT, 1 mM ATP; purified by gel filtration; settings: both partners purified
T1 construct: Orc3, Drosophila; only Orc1 is named as truncated in DmORC^Orc1ΔN; also called DmOrc3; source: Hi5 insect cells, co-expressed with the other ORC subunits, purified as part of DmORC^Orc1ΔN
T1 sequence: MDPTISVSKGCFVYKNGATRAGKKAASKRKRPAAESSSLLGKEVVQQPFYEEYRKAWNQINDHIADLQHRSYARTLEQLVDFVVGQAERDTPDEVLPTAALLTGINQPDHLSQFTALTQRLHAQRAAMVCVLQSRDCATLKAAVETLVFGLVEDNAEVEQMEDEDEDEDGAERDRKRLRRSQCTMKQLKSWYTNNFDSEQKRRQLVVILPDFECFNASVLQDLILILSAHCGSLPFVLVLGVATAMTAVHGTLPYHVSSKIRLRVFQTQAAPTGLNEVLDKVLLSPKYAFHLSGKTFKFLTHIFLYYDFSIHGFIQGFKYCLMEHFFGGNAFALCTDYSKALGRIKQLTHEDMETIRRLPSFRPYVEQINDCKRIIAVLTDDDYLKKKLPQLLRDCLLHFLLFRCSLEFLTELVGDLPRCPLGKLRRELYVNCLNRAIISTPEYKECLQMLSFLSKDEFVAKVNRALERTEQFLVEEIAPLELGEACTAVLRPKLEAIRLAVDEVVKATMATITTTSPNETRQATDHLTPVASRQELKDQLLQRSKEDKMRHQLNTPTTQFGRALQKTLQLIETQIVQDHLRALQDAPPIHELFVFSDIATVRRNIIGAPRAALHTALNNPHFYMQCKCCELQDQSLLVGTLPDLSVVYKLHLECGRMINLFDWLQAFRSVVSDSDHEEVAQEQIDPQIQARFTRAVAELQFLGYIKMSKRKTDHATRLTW

[2] = target: T2, Drosophila Orc1 lacking the N-terminal 439 residues (Orc1ΔN), subunit of DmORC^Orc1ΔN (Drosophila, UniProt O16810 440-924); test: as above; settings: both partners purified
T2 construct: Orc1, Drosophila, without the N-terminal 439 amino acid residues; also called DmOrc1; source: Hi5 insect cells, co-expressed with the other ORC subunits, purified as part of DmORC^Orc1ΔN; not shown: 6xHis, N-terminal, cleaved
T2 sequence (looked up): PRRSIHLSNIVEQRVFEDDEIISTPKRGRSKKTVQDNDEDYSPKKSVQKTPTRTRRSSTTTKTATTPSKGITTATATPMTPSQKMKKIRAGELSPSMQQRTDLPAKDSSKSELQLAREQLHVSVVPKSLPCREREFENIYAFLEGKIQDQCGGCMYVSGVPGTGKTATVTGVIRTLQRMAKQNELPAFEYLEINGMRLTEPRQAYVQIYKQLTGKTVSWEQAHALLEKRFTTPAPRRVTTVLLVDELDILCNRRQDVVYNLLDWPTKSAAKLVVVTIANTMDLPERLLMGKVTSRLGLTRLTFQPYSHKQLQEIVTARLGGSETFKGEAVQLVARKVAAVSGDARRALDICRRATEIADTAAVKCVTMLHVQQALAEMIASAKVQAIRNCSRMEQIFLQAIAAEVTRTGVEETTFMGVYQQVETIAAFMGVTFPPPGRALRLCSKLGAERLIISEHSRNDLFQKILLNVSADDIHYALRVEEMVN

[3] = target: T3, Drosophila origin recognition complex with N-terminally truncated Orc1 (DmORC^Orc1ΔN) (Drosophila, UniProt O16810 440-924; Q24168 1-618; Q7K2L1 1-721; Q9W102 1-459; Q24169 1-460; Q9Y1B2 …); test: as above; settings: both partners purified
T3 construct: Orc1, Drosophila, without the N-terminal 439 amino acid residues (Orc1ΔN); Orc2, Drosophila; only Orc1 is named as truncated in DmORC^Orc1ΔN; Orc3, Drosophila; Orc4, Drosophila; Orc5, Drosophila; Orc6, Drosophila; full-length DmOrc6 was used to reconstitute the binary and ternary complexes; Heterohexamer used for cryo-EM and for the pull-down with Cdc6ΔN; also called truncated DmORC; not shown: …
T3 sequence (chain, as listed by the source mutant, chain 4 of 3): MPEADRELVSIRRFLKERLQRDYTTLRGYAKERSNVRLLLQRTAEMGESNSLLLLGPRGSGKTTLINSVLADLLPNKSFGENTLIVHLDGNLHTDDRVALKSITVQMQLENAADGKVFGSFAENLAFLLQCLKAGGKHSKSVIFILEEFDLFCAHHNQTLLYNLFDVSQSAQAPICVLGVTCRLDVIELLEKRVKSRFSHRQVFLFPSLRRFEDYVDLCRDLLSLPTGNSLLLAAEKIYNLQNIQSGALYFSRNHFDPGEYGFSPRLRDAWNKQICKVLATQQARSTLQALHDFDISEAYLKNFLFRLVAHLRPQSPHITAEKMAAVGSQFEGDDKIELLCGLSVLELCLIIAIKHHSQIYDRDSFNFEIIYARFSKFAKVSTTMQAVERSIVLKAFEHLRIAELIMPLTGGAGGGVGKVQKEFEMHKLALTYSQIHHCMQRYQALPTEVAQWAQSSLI
T3 sequence (Q24169 whole entry, stated change not applied, chain 5 of 3, the tested form may be a part): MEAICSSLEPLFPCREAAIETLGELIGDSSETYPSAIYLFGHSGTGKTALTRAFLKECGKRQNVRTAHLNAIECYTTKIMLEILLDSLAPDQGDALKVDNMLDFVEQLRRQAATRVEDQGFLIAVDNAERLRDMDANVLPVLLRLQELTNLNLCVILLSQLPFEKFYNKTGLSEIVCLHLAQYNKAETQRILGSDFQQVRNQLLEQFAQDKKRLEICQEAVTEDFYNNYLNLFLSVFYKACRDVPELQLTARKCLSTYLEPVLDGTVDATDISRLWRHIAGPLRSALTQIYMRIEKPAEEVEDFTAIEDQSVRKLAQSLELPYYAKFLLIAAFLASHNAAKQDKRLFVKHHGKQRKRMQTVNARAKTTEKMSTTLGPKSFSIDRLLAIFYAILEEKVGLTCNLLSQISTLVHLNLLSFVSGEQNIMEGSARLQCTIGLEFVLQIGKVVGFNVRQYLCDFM
T3 sequence (Q9Y1B2 whole entry, stated change not applied, chain 6 of 3, the tested form may be a part): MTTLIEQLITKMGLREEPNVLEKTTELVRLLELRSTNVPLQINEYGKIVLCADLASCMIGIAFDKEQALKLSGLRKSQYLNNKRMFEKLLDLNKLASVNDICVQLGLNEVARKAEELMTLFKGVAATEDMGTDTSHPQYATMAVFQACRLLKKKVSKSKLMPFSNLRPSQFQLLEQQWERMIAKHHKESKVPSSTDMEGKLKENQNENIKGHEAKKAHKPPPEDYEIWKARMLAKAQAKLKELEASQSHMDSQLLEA

[4] = target: T4, Drosophila Orc2, subunit of DmORC^Orc1ΔN (Drosophila, UniProt Q24168 1-618); test: as above; settings: both partners purified
T4 construct: Orc2, Drosophila; only Orc1 is named as truncated in DmORC^Orc1ΔN; also called DmOrc2; source: Hi5 insect cells, co-expressed with the other ORC subunits, purified as part of DmORC^Orc1ΔN
T4 sequence: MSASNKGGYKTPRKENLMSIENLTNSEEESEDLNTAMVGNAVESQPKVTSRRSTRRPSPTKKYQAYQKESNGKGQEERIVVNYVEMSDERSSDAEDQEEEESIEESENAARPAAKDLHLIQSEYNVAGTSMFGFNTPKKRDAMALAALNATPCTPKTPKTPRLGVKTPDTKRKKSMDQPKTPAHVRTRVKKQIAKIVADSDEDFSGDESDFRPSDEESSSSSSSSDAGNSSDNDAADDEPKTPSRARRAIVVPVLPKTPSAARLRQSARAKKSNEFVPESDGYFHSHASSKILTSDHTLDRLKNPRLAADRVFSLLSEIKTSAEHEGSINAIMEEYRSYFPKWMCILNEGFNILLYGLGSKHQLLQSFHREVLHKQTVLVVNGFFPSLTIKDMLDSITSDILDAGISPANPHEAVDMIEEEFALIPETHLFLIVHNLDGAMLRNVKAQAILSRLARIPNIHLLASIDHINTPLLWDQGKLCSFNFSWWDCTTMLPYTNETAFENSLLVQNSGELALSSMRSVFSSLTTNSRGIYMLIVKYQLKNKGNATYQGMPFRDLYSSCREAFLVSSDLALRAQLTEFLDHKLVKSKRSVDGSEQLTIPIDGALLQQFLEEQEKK

[5] = target: T3, Drosophila origin recognition complex …; test: pull-down; MBP-DmCdc6 or 6xHis-MBP-DmCdc6ΔN (200 nM) as bait on amylose beads; DmORC (100 nM) with 60 bp AT-rich dsDNA (100 nM); 25 mM HEPES-KOH pH 7.6, 300 mM potassium glutamate, 10 mM magnesium acetate, 10% glycerol, 1 mM DTT, 0 or 1 mM ATP; 25 °C; SDS-PAGE and silver staining; settings: both partners purified
[6] = target: DmORC Orc1deltaN;DmCdc6deltaN241 (Drosophila melanogaster;Drosophila …, UniProt O16810;Q24168;Q7K2L1;Q9W102;Q24169;Q9Y1B2;Q9VSM9 …, |del1-241); test: cryo-EM; ATP, Mg2+; Anisotropy: 1 nM dsDNA, 25 mM HEPES-KOH pH 7.6, 300 mM K-glutamate, 10 mM Mg-acetate, 10% glycerol, 0.1% NP40, 1 mM DTT, 0.1 mg/mL BSA, 0 or 1 mM ATP, 25 C, 40; settings: protein: recombinant;recombinant; tags: tags cleaved;6xHis-MBP cleaved by TEV; copies: 1;1;1;1;1;1;1; blunt
Chain of DmORC Orc1deltaN;DmCdc6deltaN241 (chain, as listed by the source |del1-241 | mutant, chain 4 of 3): as the sequence (chain, as listed by the source mutant, chain 4 of 3) above
Chain of DmORC Orc1deltaN;DmCdc6deltaN241 (Q24169 whole entry, stated change not applied, chain 5 of 3): as the sequence (Q24169 whole entry, stated change not applied, chain 5 of 3, the tested form may be a part) above
Chain of DmORC Orc1deltaN;DmCdc6deltaN241 (Q9Y1B2 whole entry, stated change not applied, chain 6 of 3): as the sequence (Q9Y1B2 whole entry, stated change not applied, chain 6 of 3, the tested form may be a part) above

[7] = target: T5, Drosophila origin recognition complex, full-length (DmORC) (Drosophila, UniProt O16810 1-924; Q24168 1-618; Q7K2L1 1-721; Q9W102 1-459; Q24169 1-460; Q9Y1B2 …); test: pull-down; MBP-DmCdc6 or 6xHis-MBP-DmCdc6ΔN (200 nM) as bait on amylose beads; DmORC (100 nM) with 60 bp AT-rich dsDNA (100 nM); 25 mM HEPES-KOH pH 7.6, 300 mM potassium glutamate, 10 mM magnesium acetate, 10% glycerol, 1 mM DTT, 0 or 1 mM ATP; 25 °C; SDS-PAGE and silver staining; settings: both partners purified
T5 construct: Orc1, Drosophila, subunit of full-length DmORC; Orc2, Drosophila, subunit of full-length DmORC; Orc3, Drosophila, subunit of full-length DmORC; Orc4, Drosophila, subunit of full-length DmORC; Orc5, Drosophila, subunit of full-length DmORC; Orc6, Drosophila, subunit of full-length DmORC; Heterohexamer Orc1-6; also called wild type DmORC; not shown: 6xHis, N-terminal, cleaved; MBP, N-terminal, …

B1: N-terminally truncated Drosophila Cdc6 (DmCdc6ΔN241), tags removed (domain or fragment, UniProt Q9VSM9 242-662, looked up)
chain: NNLPSPSRNKYQNARRVLNSAETQNLPGRESQLQELREFFSNHLESQTSGSLYVSGQPGTGKTACLSLLLRDPDFSKRLQRVYINCTSIASVGAVYKKLCTELQLKVSGRTERDHLEAIQRHLKTAKRMLLLVLDEIDQLCTSRQEVLYTIFEWPALPGSRILLVGIANSLDLTDRALMRLNARCELKPRLMHFPPYSKQQIVEIFKSRLAEAEVLDVFPPVTLQLLAAKVSAISGDVRRALDIGRRVVEIAEQQKRDGEKEFNMKALQLEGKDAVEAKEKQDTLKPVQVTQVAAVLNKVYGASQNLEEDIEASFPLQQKLMLCTLVLMLRNERNKDISMGRLHEVYRRVCAKRNILALDQAEFTGTVDLVETRGILRIMRKKEPRLHKVLLQWDEEEVHAALSDKQLIASILSDTACLSK
notes: Cdc6, Drosophila, ΔN241, amino acids 242-662; not shown: 6xHis, N-terminal, cleaved; MBP, N-terminal, cleaved
**Q.** Does B1 bind [1]?
**A.** Result: binds

**Q.** Does B1 bind [2]?
**A.** Result: binds

**Q.** Does B1 bind [3]?
**A.** Result: binds

**Q.** Does B1 bind [4]?
**A.** Result: binds

B2: 6xHis-MBP-tagged N-terminally truncated Drosophila Cdc6 (6xHis-MBP-DmCdc6ΔN241) (domain or fragment, UniProt Q9VSM9 242-662, looked up)
chain: B1 chain
notes: Cdc6, Drosophila, ΔN241, amino acids 242-662; also called 6xHis-MBP-tagged DmCdc6ΔN241; source: TEV cleavage omitted; not shown: 6xHis, N-terminal, kept; MBP, N-terminal, kept
**Q.** Does B2 bind [5]?
**A.** Result: binds

B3: 60 bp GC-rich (70% GC) (dsDNA)
DNA 1: GGGGCTCGACTCCAAGTGCGGGGCACTCGTCTGTGAGGGGGCTCAGTTCGCACTGCGGGG
DNA 2: CCCCGCAGTGCGAACTGAGCCCCCTCACAGACGAGTGCCCCGCACTTGGAGTCGAGCCCC
**Q.** Does B3 bind [6]?
**A.** Result: binds

B4: 84 bp AT-rich (dsDNA)
DNA 1: TTTGTGCACTTGCCTGCAGGCCTTTTGAAAAGCAAGCATAAAAGATCTAAACATAAAATCTGTAAAATAACAAGATGTAAAGAT
DNA 2: ATCTTTACATCTTGTTATTTTACAGATTTTATGTTTAGATCTTTTATGCTTGCTTTTCAAAAGGCCTGCAGGCAAGTGCACAAA
**Q.** Does B4 bind [6]?
**A.** Result: binds

B5: full-length MBP-tagged Drosophila Cdc6 (MBP-DmCdc6) (natural protein, UniProt Q9VSM9 1-662, looked up)
chain: MAAVRRSTRLSSISKATAASPLPPSTQTPRRSEVWKRRQPKKVLADSDEEEEVVTAIYDLTSPVSENNENRNVLNKMDKISRRRTSQVQVAQSELPKTPRSTKKTVQSAGSSRAKREEENREATARFLEGEQDSEVDPLHGSPPKQRKLQPLPQHLISPSRLLDRLSIDERQEEEVEATTHKTETAEQQPKHQAKDEAKPRPKQQEDPLAQKQQEKPPTKQPNKNQTKEKSNIQTNEETQQNNLPSPSRNKYQNARRVLNSAETQNLPGRESQLQELREFFSNHLESQTSGSLYVSGQPGTGKTACLSLLLRDPDFSKRLQRVYINCTSIASVGAVYKKLCTELQLKVSGRTERDHLEAIQRHLKTAKRMLLLVLDEIDQLCTSRQEVLYTIFEWPALPGSRILLVGIANSLDLTDRALMRLNARCELKPRLMHFPPYSKQQIVEIFKSRLAEAEVLDVFPPVTLQLLAAKVSAISGDVRRALDIGRRVVEIAEQQKRDGEKEFNMKALQLEGKDAVEAKEKQDTLKPVQVTQVAAVLNKVYGASQNLEEDIEASFPLQQKLMLCTLVLMLRNERNKDISMGRLHEVYRRVCAKRNILALDQAEFTGTVDLVETRGILRIMRKKEPRLHKVLLQWDEEEVHAALSDKQLIASILSDTACLSK
notes: TEV site between MBP and Cdc6; source: Hi5 insect cells, baculovirus, purified (amylose, gel filtration); not shown: MBP, N-terminal, kept
**Q.** Does B5 bind [7]?
**A.** Result: binds
